T1: annexin V, P08758
T1 chain: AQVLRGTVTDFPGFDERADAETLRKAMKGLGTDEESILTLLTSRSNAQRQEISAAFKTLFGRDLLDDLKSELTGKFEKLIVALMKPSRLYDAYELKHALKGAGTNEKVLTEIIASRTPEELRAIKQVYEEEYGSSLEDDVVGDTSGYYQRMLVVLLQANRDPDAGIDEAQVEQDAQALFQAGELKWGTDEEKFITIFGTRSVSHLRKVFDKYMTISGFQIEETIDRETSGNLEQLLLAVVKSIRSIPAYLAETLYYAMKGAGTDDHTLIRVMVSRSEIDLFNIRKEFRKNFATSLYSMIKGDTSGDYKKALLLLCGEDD


Assays:
[1] = molecular target: FITC-labeled, dephosphorylated casein
[2] = molecular target: β-casein
[3] = molecular target: T1, annexin V, P08758
[4] = molecular target: kidney membrane associated proteins

Protein | proteolytic activity, fluorescence at 535 nm of Dcasein-FITC [1] | proteolytic activity, SDS-PAGE with Coomassie Blue staining [2] | cleavage in human kidney cytoplasmic extract, 2-dimensional gel electrophoresis [3] | cleavage in human kidney membrane extract, 2-dimensional gel electrophoresis [4]
MBP-Omi-(134-458) (protein) AVPSPPPASPRSQYNFIADVVEKTAPAVVYIEILDRHPFLGREVPISNGSGFVVAADGLIVTNAHVVADRRRVRVRLLSGDTYEAVVTAVDPVADIATLRIQTKEPLPTLPLGRSADVRQGEFVVAMGSPFALQNTITSGIVSSAQRPARDLGLPQTNVEYIQTDAAIDFGNSGGPLVNLDGEVIGVNTMKVTAGISFAIPSDRLREFLHRGEKKNSSSGISGSQRRYIGVMMLTLSPSILAELQLREPSFPDVQHGVLIHKVILGSPAHRAGLRPGDVILAIGEQMVQNAEDVYEAVRTQSQLAVQIRRGRETLTLYVTPEVTE | there was a rapid increase in fluorescence for the first 20 min followed by a slower increase for the remaining 10 min of the assay | – | – | –
His-tagged Omi-(134-458) (protein) AVPSPPPASPRSQYNFIADVVEKTAPAVVYIEILDRHPFLGREVPISNGSGFVVAADGLIVTNAHVVADRRRVRVRLLSGDTYEAVVTAVDPVADIATLRIQTKEPLPTLPLGRSADVRQGEFVVAMGSPFALQNTITSGIVSSAQRPARDLGLPQTNVEYIQTDAAIDFGNSGGPLVNLDGEVIGVNTMKVTAGISFAIPSDRLREFLHRGEKKNSSSGISGSQRRYIGVMMLTLSPSILAELQLREPSFPDVQHGVLIHKVILGSPAHRAGLRPGDVILAIGEQMVQNAEDVYEAVRTQSQLAVQIRRGRETLTLYVTPEVTE | – | had substantial activity against β-casein, and after 30 min total degradation of the substrate occurred | two polypeptides (32 kD and 29 kD) in the human kidney cytoplasmic fraction were specifically cleaved by His-Omi | No proteins were cleaved in the membrane bound fractions
